These are literature values, as cited in patent US20250282866A1, “TREATMENT OF DISEASES RELATED TO ATP-BINDING CASSETTE TRANSPORTER 1 DYSFUNCTION USING TREM2 AGONISTS” (VIGIL NEUROSCIENCE, INC., priority 2020, published 2025).

Where two headings read alike, the source gives them in different places. Marks after values point to notes of the source that are not given here.

The data set addresses T1, human TREM2 (Homo sapiens, UniProt Q9NZC2).
T1 sequence (Q9NZC2 19-230): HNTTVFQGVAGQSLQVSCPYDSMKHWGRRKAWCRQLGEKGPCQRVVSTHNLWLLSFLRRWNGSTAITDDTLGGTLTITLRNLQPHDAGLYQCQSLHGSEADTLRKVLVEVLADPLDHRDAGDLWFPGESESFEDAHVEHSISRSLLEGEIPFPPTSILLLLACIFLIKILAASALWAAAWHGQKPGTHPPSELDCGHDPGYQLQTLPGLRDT
As to conditions: for Binding Signal (fold over 6E7 Parental antibody) 1st screen 110 nM or 10 nM: concentration 110 nM or 10 nM (footnote a not given).

Setting [1] is: values printed without asterisk.

B1: V85: 6E7 variant: VH T30R, I50T, Q99S; VL L54R (antibody, V domains shown)
VH: EVQLVQSGAEVKKPGESLKISCKGSGYSFRSYWIAWVRQMPGKGLEWMGTIYPGDSDTRYSPSFQGQVTISADKSISTAYLQWSSLKASDTAMYFCARSRTFYYDSSDYFDYWGQGTLVTVSS
VL: DIQMTQSPSSVSASVGDRVTITCRASQGISSWLAWYQQKPGKAPKLLIYAASSRQNGVPSRFSGSGSGTDFTLTISSLQPEDFATYFCQQADSFPRTFGQGTKLEIK
On to B1, for which the “Binding Signal (fold over 6E7 Parental antibody) 1st screen 110 nM or 10 nM” value under setting [1] was 5.41 fold over 6E7 Parental antibod. For the same molecule, for the setting “2nd screen”, the “Binding Signal (fold over 6E7 Parental antibody) 2nd screen 2 nM” value is reported as 5.41 fold over 6E7 Parental antibod and the “Binding Signal (fold over 6E7 Parental antibody) 2nd screen 10 nM” value is reported as 5.37 fold over 6E7 Parental antibod.

B2: V13: 6E7 variant: VH T30G, P62A, Q99G; VL N56G, F94M (antibody, V domains shown)
VH: EVQLVQSGAEVKKPGESLKISCKGSGYSFGSYWIAWVRQMPGKGLEWMGIIYPGDSDTRYSASFQGQVTISADKSISTAYLQWSSLKASDTAMYFCARGRTFYYDSSDYFDYWGQGTLVTVSS
VL: DIQMTQSPSSVSASVGDRVTITCRASQGISSWLAWYQQKPGKAPKLLIYAASSLQGGVPSRFSGSGSGTDFTLTISSLQPEDFATYFCQQADSMPRTFGQGTKLEIK
For B2, under setting [1], the “Binding Signal (fold over 6E7 Parental antibody) 1st screen 110 nM or 10 nM” value is 1.31 fold over 6E7 Parental antibod. In addition, under “2nd screen”, the “Binding Signal (fold over 6E7 Parental antibody) 2nd screen 2 nM” value is 1.15 fold over 6E7 Parental antibod and the “Binding Signal (fold over 6E7 Parental antibody) 2nd screen 10 nM” value is 1.35 fold over 6E7 Parental antibod.

B3: V90: 6E7 variant: VH Y32E; VL S31R (antibody, V domains shown)
VH: EVQLVQSGAEVKKPGESLKISCKGSGYSFTSEWIAWVRQMPGKGLEWMGIIYPGDSDTRYSPSFQGQVTISADKSISTAYLQWSSLKASDTAMYFCARQRTFYYDSSDYFDYWGQGTLVTVSS
VL: DIQMTQSPSSVSASVGDRVTITCRASQGISRWLAWYQQKPGKAPKLLIYAASSLQNGVPSRFSGSGSGTDFTLTISSLQPEDFATYFCQQADSFPRTFGQGTKLEIK
Turning to B3, the “Binding Signal (fold over 6E7 Parental antibody) 1st screen 110 nM or 10 nM” value (values printed with asterisk) is on record as 0.33* fold over 6E7 Parental antibod. Also, under “2nd screen, 100 nM”, the “Binding Signal (fold over 6E7 Parental antibody) 2nd screen 100 nM” value was 0.36 fold over 6E7 Parental antibod.

B4: V86: 6E7 variant: VH T30G, I34L, Q65E, Q99S; VL L54R (antibody, V domains shown)
VH: EVQLVQSGAEVKKPGESLKISCKGSGYSFGSYWLAWVRQMPGKGLEWMGIIYPGDSDTRYSPSFEGQVTISADKSISTAYLQWSSLKASDTAMYFCARSRTFYYDSSDYFDYWGQGTLVTVSS
VL: DIQMTQSPSSVSASVGDRVTITCRASQGISSWLAWYQQKPGKAPKLLIYAASSRQNGVPSRFSGSGSGTDFTLTISSLQPEDFATYFCQQADSFPRTFGQGTKLEIK
For the molecule B4, the “Binding Signal (fold over 6E7 Parental antibody) 1st screen 110 nM or 10 nM” value under setting [1] is reported as 4.80 fold over 6E7 Parental antibod. Also, where the note is “2nd screen”, the “Binding Signal (fold over 6E7 Parental antibody) 2nd screen 2 nM” value is given as 5.17 fold over 6E7 Parental antibod and the “Binding Signal (fold over 6E7 Parental antibody) 2nd screen 10 nM” value is given as 5.02 fold over 6E7 Parental antibod.

B5: V15: 6E7 variant: VH T30A, I50T, Q99S; VL S53W, F94Y (antibody, V domains shown)
VH: EVQLVQSGAEVKKPGESLKISCKGSGYSFASYWIAWVRQMPGKGLEWMGTIYPGDSDTRYSPSFQGQVTISADKSISTAYLQWSSLKASDTAMYFCARSRTFYYDSSDYFDYWGQGTLVTVSS
VL: DIQMTQSPSSVSASVGDRVTITCRASQGISSWLAWYQQKPGKAPKLLIYAASWLQNGVPSRFSGSGSGTDFTLTISSLQPEDFATYFCQQADSYPRTFGQGTKLEIK
In the case of B5, under setting [1], the “Binding Signal (fold over 6E7 Parental antibody) 1st screen 110 nM or 10 nM” value is listed as 5.23 fold over 6E7 Parental antibod. For the same molecule, where the note is “2nd screen”, the “Binding Signal (fold over 6E7 Parental antibody) 2nd screen 2 nM” value is 4.72 fold over 6E7 Parental antibod and the “Binding Signal (fold over 6E7 Parental antibody) 2nd screen 10 nM” value is recorded as 4.78 fold over 6E7 Parental antibod.

B6: V87: 6E7 variant: VH T30R, T58V, S63D, Q99S; VL N56W (antibody, V domains shown)
VH: EVQLVQSGAEVKKPGESLKISCKGSGYSFRSYWIAWVRQMPGKGLEWMGIIYPGDSDVRYSPDFQGQVTISADKSISTAYLQWSSLKASDTAMYFCARSRTFYYDSSDYFDYWGQGTLVTVSS
VL: DIQMTQSPSSVSASVGDRVTITCRASQGISSWLAWYQQKPGKAPKLLIYAASSLQWGVPSRFSGSGSGTDFTLTISSLQPEDFATYFCQQADSFPRTFGQGTKLEIK
As for B6, under setting [1], the “Binding Signal (fold over 6E7 Parental antibody) 1st screen 110 nM or 10 nM” value is reported as 3.84 fold over 6E7 Parental antibod. Under “2nd screen”, the “Binding Signal (fold over 6E7 Parental antibody) 2nd screen 2 nM” value was 4.86 fold over 6E7 Parental antibod and the “Binding Signal (fold over 6E7 Parental antibody) 2nd screen 10 nM” value is listed as 3.93 fold over 6E7 Parental antibod.

B7: V88: 6E7 variant: VH T30G; VL S53R, N56R, F94S (antibody, V domains shown)
VH: EVQLVQSGAEVKKPGESLKISCKGSGYSFGSYWIAWVRQMPGKGLEWMGIIYPGDSDTRYSPSFQGQVTISADKSISTAYLQWSSLKASDTAMYFCARQRTFYYDSSDYFDYWGQGTLVTVSS
VL: DIQMTQSPSSVSASVGDRVTITCRASQGISSWLAWYQQKPGKAPKLLIYAASRLQRGVPSRFSGSGSGTDFTLTISSLQPEDFATYFCQQADSSPRTFGQGTKLEIK
As to B7, under setting [1], the “Binding Signal (fold over 6E7 Parental antibody) 1st screen 110 nM or 10 nM” value is 4.92 fold over 6E7 Parental antibod. For the setting “2nd screen”, the “Binding Signal (fold over 6E7 Parental antibody) 2nd screen 2 nM” value is 5.57 fold over 6E7 Parental antibod and the “Binding Signal (fold over 6E7 Parental antibody) 2nd screen 10 nM” value is 5.30 fold over 6E7 Parental antibod.

B8: V14: 6E7 variant: VH T30G, S56Q, Q99G; VL S53R (antibody, V domains shown)
VH: EVQLVQSGAEVKKPGESLKISCKGSGYSFGSYWIAWVRQMPGKGLEWMGIIYPGDQDTRYSPSFQGQVTISADKSISTAYLQWSSLKASDTAMYFCARGRTFYYDSSDYFDYWGQGTLVTVSS
VL: DIQMTQSPSSVSASVGDRVTITCRASQGISSWLAWYQQKPGKAPKLLIYAASRLQNGVPSRFSGSGSGTDFTLTISSLQPEDFATYFCQQADSFPRTFGQGTKLEIK
Turning to B8, the “Binding Signal (fold over 6E7 Parental antibody) 1st screen 110 nM or 10 nM” value under setting [1] was 4.71 fold over 6E7 Parental antibod. Further, for the setting “2nd screen”, the “Binding Signal (fold over 6E7 Parental antibody) 2nd screen 2 nM” value is reported as 2.57 fold over 6E7 Parental antibod and the “Binding Signal (fold over 6E7 Parental antibody) 2nd screen 10 nM” value was 4.64 fold over 6E7 Parental antibod.

B9: V16: 6E7 variant: VH F29M, S56G, Q99S; VL S53N (antibody, V domains shown)
VH: EVQLVQSGAEVKKPGESLKISCKGSGYSMTSYWIAWVRQMPGKGLEWMGIIYPGDGDTRYSPSFQGQVTISADKSISTAYLQWSSLKASDTAMYFCARSRTFYYDSSDYFDYWGQGTLVTVSS
VL: DIQMTQSPSSVSASVGDRVTITCRASQGISSWLAWYQQKPGKAPKLLIYAASNLQNGVPSRFSGSGSGTDFTLTISSLQPEDFATYFCQQADSFPRTFGQGTKLEIK
Regarding B9, under setting [1], the “Binding Signal (fold over 6E7 Parental antibody) 1st screen 110 nM or 10 nM” value is 4.01 fold over 6E7 Parental antibod. For the same molecule, where the note is “2nd screen”, the “Binding Signal (fold over 6E7 Parental antibody) 2nd screen 2 nM” value was 3.57 fold over 6E7 Parental antibod and the “Binding Signal (fold over 6E7 Parental antibody) 2nd screen 10 nM” value was 4.04 fold over 6E7 Parental antibod.
